Measured values reported in paper PMC5302815.

Target: T1, FinR (Pseudomonas aeruginosa PAO1) (UniProt Q9HYK6)
T1 sequence: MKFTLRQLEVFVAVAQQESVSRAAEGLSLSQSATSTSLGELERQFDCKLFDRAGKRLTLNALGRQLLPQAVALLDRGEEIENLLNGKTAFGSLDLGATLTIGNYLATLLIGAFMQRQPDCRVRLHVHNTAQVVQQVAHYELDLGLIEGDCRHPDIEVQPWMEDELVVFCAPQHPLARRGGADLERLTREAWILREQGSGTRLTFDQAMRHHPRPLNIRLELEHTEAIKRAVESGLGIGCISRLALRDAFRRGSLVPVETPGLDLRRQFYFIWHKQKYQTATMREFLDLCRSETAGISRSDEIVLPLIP
Assay: EMSA
Settings: EMSA: 20 mM Tris-HCl pH 8.0, 50 mM KCl, 4 mM MgCl2, 0.5 mM EDTA, 0.02 mg/ml BSA, 5 mM DTT, 10% glycerol, 200 ng poly(dI-dC), 3 fmol probe in 25 ul, 25 C …

Sequence | binding
CGATATCGTGTTATCCCATATCCATATTCTGGATAAGCATTATCCAGACAATTCATTTTGCGGATATTTTGGCAACCGATAAAATGCCGCGCAACTGCGTCACGTCTGCTGCTGTTGGTGTGCGCCCGCGTTTTCCTAGGAGTCTTTGATGAGCAATCTGTACACCGAGCGCGTTCTCAGCGTGCACCACTGGAACGACACCCTGTTCAGCT (double strand) [EBI61-EBI70 fragment (with FinR site)] | binds
AGACGCTCTCCTGCTGGGCCACGGCGACGAACACCTCGAGCTGGCGGAGGGTGAATTTCATCCAGGCTTCCTCGTCTAGAGCGAAAGGCCCCGCGACATTTTGCCGTTCCGTCGGCGGGGTTGGCTCGGTTATCCTTGCGCCCCGTCCGCGGGAGCGATGGGAGCCCTCGGCGGCCGGCGGCCGACCGATATCGTGTTATCCC (double strand) [EBI62-EBI69 fragment (without FinR site)] | no binding
